Reference: paper PMC4148589 (Journal of cell science, 2013)

Tests used:
Assay in all cases: FRAP
[1] = molecular target: CaV1.1 α1S with deletion of amino acid 344 (pc-α1Sdel1(Δ344)) (UniProt P07293 1-1873, Δ344)
[2] = molecular target: CaV1.2 α1C subunit, untagged (pβA-α1C) (UniProt P22002-5 1-2142)
[3] = molecular target: CaV1.1 α1S with deletion of amino acids 344–345 (pc-α1Sdel2(Δ344–345)) (UniProt P07293 1-1873, Δ344–345)
[4] = molecular target: CaV1.1 α1S with deletion of amino acids 344–346 (pc-α1Sdel3(Δ344–346)) (UniProt P07293 1-1873, Δ344–346)
[5] = molecular target: CaV1.1 α1S subunit, untagged (pc-α1S) (UniProt P07293 1-1873)

B1: skeletal muscle β1a subunit, GFP-tagged (pcDNA3-β1a-GFP) (natural protein)
chain: not shown
- R75 (fractional fluorescence recovery 75 s after bleaching) [1]: 20.9%
- R75 (fractional fluorescence recovery 75 s after bleaching) [2]: 23.6%
- R75 (fractional fluorescence recovery 75 s after bleaching) [3]: 19.9%
- R75 (fractional fluorescence recovery 75 s after bleaching) [4]: 22.8%

B2: β1a subunit with the substitution M293A, GFP-tagged (pcDNA3-β1aM293A-GFP) (natural protein)
chain: not shown
- R75 (fractional fluorescence recovery 75 s after bleaching) [5]: 45.2%
